Patent publication US20030059763A1, “Immunoglobulin class switch recombination” (priority 2001, published 2003)

B1: IFN-γ: cytokine (protein, UniProt P01579 24-161, looked up)
Interferon gamma: QDPYVKEAENLKKYFNAGHSDVADNGTLFLGILKNWKEESDRKIMQSQIVSFYFKLFKNFKDDQSIQKSVETIKEDMNVKFFNSNKKKRDDFEKLTNYSVTDLNVQRKAIHELIQVMAELSPAAKTGKRKRSQMLFRG
B2: IL-10: cytokine (protein, UniProt P22301 19-178, looked up)
Interleukin-10: SPGQGTQSENSCTHFPGNLPNMLRDLRDAFSRVKTFFQMKDQLDNLLLKESLLEDFKGYLGCQALSEMIQFYLEEVMPQAENQDPDIKAHVNSLGENLKTLRLRLRRCHRFLPCENKSKAVEQVKNAFNKLQEKGIYKAMSEFDIFINYIEAYMTMKIRN
B3: IL-4: cytokine purchased from R & D system (protein, UniProt P05112 25-153, looked up)
Interleukin-4: HKCDITLQEIIKTLNSLTEQKTLCTELTVTDIFAASKNTTEKETFCRAATVLRQFYSHHEKDTRCLGATAQQFHRHKQLIRFLKRLDRNLWGLAGLNSCPVKEANQSTLENFLERLKTIMREKYSKCSS

What was measured:
[1] = tested on: plasmid p77D3.11 (human Sμ and Sε); assay: In vitro (cell-free) switch recombination assay, white vs blue colonies; type: biochemical; details: added to the recombination reaction; EDTA 10 mM
Procedure: Nuclear cell extracts from primary human B cells and cell lines were prepared by the Nonidet P-40 (NP-40) lysis method (Dyer and Herzog, BioTechniques 19:192-195 (1995)) with important modifications. Briefly, 10^8 (10^7 for cell lines) purified fresh human tonsillar B lymphocytes (Zhang et al., 1994, supra) were harvested following culture for 3 days with or without 0.1 μg/ml of anti-CD40 monoclonal antibody G28.5 (Zhang et al., 1994, supra) and were lysed with 1 ml of sucrose buffer (0.32 M sucrose, 3 mM CaCl2, 2 mM magnesium acetate, 0.1 mM EDTA, 10 mM Tris-HCl, pH 8.0, 1 mM DTT, 0.5 mM PMSF) containing 0.5% (vol/vol) NL-40 (BRL, Gaithersburg, Mich.). The cells were lysed immediately and the intact nuclei were pelleted by centrifugation at 2400 rpm/5 min at 4° C. The nuclei were washed twice (10^8 B cells/ml) with ice-cold sucrose buffer lacking NP-40. The pelleted nuclei were suspended in 50 μl/10^8 B cells with low-salt buffer (20 mM Hepes, pH 7,6, 25% glycerol, 1.5 mM MgCl2, 20 mM KCl, 0.2 mM EDTA, 0.5 mM DTT, 0.5 mM PMSF) followed by slowly adding 1 vol of high-salt buffer (20 mM Hepes, pH 7.6, 25% glycerol, 1.5 mM MgCl2, 800 mL KCl, 0.2 mM EDTA, 0.5 mM DTT, 0.5 mM PMSF) at 4° C. for 30 min with agitation for nuclear protein extraction. […] The concentration of the nuclear protein was determined by Bradford assay. […]

[2] = molecular target: CD40 on human B lymphoma cell line Ramos 2G6 (stably transfected with switch constructs XF-1 / XF-5a) (human) (UniProt P25942); assay: cell-based or functional assay
[3] = tested on: Ramos 2G6 cells stably transfected with XF-1; assay: Substrate switch recombination (SSR), GFP positive cells by FACS, construct XF-1; type: cell-based, human; details: XF-1 cells; cytokines alone or in combination with CD40 mAb
Source text: (§1) The backbone of our switch substrate contained 1.6 Kb of the human Sμ (Zhang and Cheah, 2000, supra) and 1.8 Kb of the human Sγ2 regions (Mills et al, 1995, supra) under the transcriptional control of the CMV (pCMV) and the SV40 promoters (pSV40) respectively. A RSV LTR enhancer/promoter (pRC/RSV-LTR) and a GFP gene under the control of an internal ribosome entry site (IRES) were interposed between Sμ and Sγ2 in the reverse transcriptional orientation (FIG. 1A). Thus, the GFP gene will not be expressed within the gennline configuration of the construct. Detection of switch recombination between the Sμ and Sγ2 in the construct is based on the mechanism of the deletional recombination that excises and deletes the intervening DNA sequences between the Sμ and Sγ2. This excised sequence including the IRES-GFP expression unit forms an extrachromosomal circular DNA that is now under the transcriptional control of the pRSV-LTR (FIG. 1A). The RNA splice donor and acceptor sites permit uniform expression of the GFP from the excised circular DNA (FIG. 1A). Since the GFP gene is expressed only after the switch recombination (recombination or inversion, FIG. 1A) between the Sμ and Sγ2, switch recombination can be monitored in the cultured living cells in “real-time” by fluorescence microscopy. Furthermore, the frequency of switch recombination can be quantitatively measured by flow cytometry.
(§2) To test the potential roles of DNA sequences that may control or regulate the processes involved in switch recombination, the DNA fragments of interest were engineered into the basic switch construct (XF-1) to generate a series of modified switch constructs as diagrammed in the FIG. 1B. All the modified constructs were transfected into Ramos 2G6 cells as stable constructs to establish the switch cell lines. The integrity and copy number of the constructs were determined by Southern Blot analysis and PCR. Only subclones that contain a single copy of the construct were used. To distinguish the substrate switch recombination described here from switch recombination occurring at the intrinsic IgH loci (e.g., CSR), the former is abbreviated as SSR.
(§3) The human B lymphoma cell line Ramos 2G6 (ATCC, Rockville pike, Md.) and its subclones, L cells stably transfected with human CD40L (CD154) provided by D. Rawlings, UCLA), and CHO cells stably transfected with murinc CD40L (Immunex Inc, Seattle, Wash.) were maintained and cultured in complete PRMI 1640 (Zhang et al, 1994, supra). One million cells in 0.2 ml were transfected with 10 μg plasmid DNA by electroporation (200V, 0.975 μF). Genicitin (G418) was added to cultures two days later for clonal selection and the levels increased over four week to concentrations that were previously determined by dosage titration for the different cell lines.
(§4) The expression of GFP in cell lines stably transfected with switch vectors following various stimulated culture conditions was measured by either single- or dual-color flow cytometry (FACS Core laboratory, UCLA). The data were analyzed with FCS express software (De Novo software Inc, Thornhill, Ontario, Canada).

Ramos 2G6/XF-5a.1 cells = assay: Substrate switch recombination (SSR), GFP positive cells by FACS, construct XF-5a; type: cell-based, human; details: for effect on SSR: XF-5a / XF-5a.1 cells, antibodies 1 μg/ml, cytokines 5 ng/ml alone or with CD40 mAb
Source text: pXF-5a: A PCR amplified 356 bp fragment containing Iε exon and its 5′ promoter region (pIε) was inserted into Xho I and Xba I sites in pXF-1.
as §1, §2, §3, §4

[4] = tested on: Ramos 2G6 cells stably transfected with XF-2b; assay: Substrate switch recombination (SSR), construct XF-2b; type: cell-based, human; details: XF-2b cells
Source text: pXF-2b: The CMV promoter in pXF-2a was deleted by removal of the Ase I and Xho I fragment.
as §2
as §3, with “One million cells in 0.2 ml were transfected with 10 μg plasmid DNA by electroporation (200V, 0.975 μF).” left out, “lines. […]” for “lines.”

[5] = tested on: Iε-Cε1′ transcripts in Ramos 2G6/XF-5a.1 cells; assay: RT-PCR of processed Iε-Cε1′ transcripts from the construct; type: cell-based, human; details: 48 hours, IL-4 1 ng/ml, CD40 mAb 1 μg/ml
Procedure: The cells were cultured in the presence of IL-4 (1 ng/ml) and CD40 mAb (1 μg/ml) for 48 hours following by RNA preparation and RT-PCR. Total RNA (2 μg) was used for reverse-transcription and cDNA derived from 0.2 μg of RNA was subject to PCR amplification using the primers diagrammed in the FIG. 7B. The ratio of SSR from the cultures (assayed at day 5) is shown in the bottom. […] Diagrams of the formation of the “germ line” transcripts Iε-Cε1′ from the transgenes and the Iε-Cε2 from the endogenous IgH ε locus are shown in the FIG. 7B. The arrows represent the positions of the primers used for PCR.
PCR and […] (RT-PCR) were performed as described previously (Zhang et al, 1994, supra; Zhang and Cheah, 2000, supra). For amplification of the Sμ-Sγ2 products, genomic DNA from the stably transfected Ramos 2G6 cells was amplified with PCR Kit for GC-rich DNA (Clonetech, Palo Alto, Calif.). […]
The role of transcriptional activity vs. SSR was further investigated using Ramos 2G6/XF-5a.1. As the XF-5a construct contains the Iε exon and a Cε1 exon (referred to as Cε1′) that is able to form processed transcripts through RNA splicing, transcriptional activity of the construct can be semi-quantitatively determined by measuring the Iε-Cε1′ transcripts by RT-PCR (FIG. 7). […]

Sequence of CD40 on human B lymphoma cell line Ramos 2G6 (stably transfected with switch constructs XF-1 / XF-5a) (human) (P25942 21-277): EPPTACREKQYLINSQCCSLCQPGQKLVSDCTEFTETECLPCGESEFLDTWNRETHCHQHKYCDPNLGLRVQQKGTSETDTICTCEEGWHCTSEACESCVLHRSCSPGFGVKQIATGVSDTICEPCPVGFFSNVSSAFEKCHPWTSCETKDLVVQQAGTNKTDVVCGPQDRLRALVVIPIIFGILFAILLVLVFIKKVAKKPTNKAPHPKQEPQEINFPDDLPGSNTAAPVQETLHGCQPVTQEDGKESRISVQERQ

Row | Molecule | effect on SSR frequency [3] | effect on SSR (Ramos 2G6/XF-5a.1 cells) | also measured
1 | O=C(O)CN(CCN(CC(=O)O)CC(=O)O)CC(=O)O [EDTA] |  |  | effect on recombination activity [1]: almost completely blocked the activity
2 | Anti-CD40 mAb G28.5 (antibody) |  |  | GFP expression level (percent of cells), Ramos 2G6/XF-5a.1, in the presence of IL-4 [2]: > 50%; SSR frequency (percent GFP positive cells), Ramos 2G6/XF-5a.1, without IL-4 [2]: 3.2%; SSR rate (percent GFP positive cells), Ramos 2G6 with construct XF-1 [2]: 1.9%
3 | IL-5: cytokine | did not increase | did not increase | 
4 | IL-6: cytokine | did not increase | did not increase | 
5 | TGF-β | did not increase | did not increase | 
6 | B1 | did not increase | did not increase | 
7 | B2 | did not increase | did not increase | 
8 | B3 | marginal effects | limited effects | SSR [4]: efficient SSR did not result; GFP expression, plateau of IL-4 dose-response (Ramos 2G6/XF-5a.1 cells; XF-5a cells, in the presence of CD40 mAb (1 μg/ml), plateau at 3 ng/ml IL-4): around 50%; change of level of processed Iε-Cε1′ transcripts over pCMV-driven level [5]: minimally increased
